Source: PMC3329491, “Insight on an Arginine Synthesis Metabolon from the Tetrameric Structure of Yeast Acetylglutamate Kinase” (PLoS ONE, 2012)

B1: truncated yNAGK spanning residues 58 to 356 (AAK domain, lacking the C-terminal DUF619 domain) (domain or fragment, Saccharomyces cerevisiae, UniProt Q01217 58-356, looked up)
chain: VSSTNGFSATRSTVIQLLNNISTKREVEQYLKYFTSVSQQQFAVIKVGGAIISDNLHELASCLAFLYHVGLYPIVLHGTGPQVNGRLEAQGIEPDYIDGIRITDEHTMAVVRKCFLEQNLKLVTALEQLGVRARPITSGVFTADYLDKDKYKLVGNIKSVTKEPIEASIKAGALPILTSLAETASGQMLNVNADVAAGELARVFEPLKIVYLNEKGGIINGSTGEKISMINLDEEYDDLMKQSWVKYGTKLKIREIKELLDYLPRSSSVAIINVQDLQKELFTDSGAGTMIRRGYKLVK
notes: A Se-Met-substituted form was used for phasing only (not deposited); also called truncated AAK; yNAGK lacking its C-terminal domain; source: E. coli BL21 (DE3), purified (HisTrap); not shown: MGH6 His-tag, N-terminal, kept
B2: complete mature yeast N-acetyl-L-glutamate kinase (yNAGK), residues 58-513 (enzyme, Saccharomyces cerevisiae, UniProt Q01217 58-513, looked up)
chain: VSSTNGFSATRSTVIQLLNNISTKREVEQYLKYFTSVSQQQFAVIKVGGAIISDNLHELASCLAFLYHVGLYPIVLHGTGPQVNGRLEAQGIEPDYIDGIRITDEHTMAVVRKCFLEQNLKLVTALEQLGVRARPITSGVFTADYLDKDKYKLVGNIKSVTKEPIEASIKAGALPILTSLAETASGQMLNVNADVAAGELARVFEPLKIVYLNEKGGIINGSTGEKISMINLDEEYDDLMKQSWVKYGTKLKIREIKELLDYLPRSSSVAIINVQDLQKELFTDSGAGTMIRRGYKLVKRSSIGEFPSADALRKALQRDAGISSGKESVASYLRYLENSDFVSYADEPLEAVAIVKKDTNVPTLDKFVCSDAAWLNNVTDNVFNVLRRDFPALQWVVSENDANIAWHFDKSQGSYLKGGKVLFWYGIDDINTISELVENFVKSCDTASTLNSSASS
modifications: for crystallization only: surface-exposed lysine residues reductively dimethylated
notes: N-acetyl-L-glutamate kinase of Saccharomyces cerevisiae, made by processing of the polyprotein precursor encoded by ARG5,6 (Uniprot Q01217); Amplified from pYB3 and inserted into pTrc99a; Methylated protein is stated for crystal NAGK1; Nothing says that the protein of the size exclusion run was methylated; also called complete yNAGK; complete mature yNAGK; source: E. coli BL21 (DE3), purified …

How the values were obtained:
[1] = target: the molecule itself; test: crystal structure; truncated yNAGK, space group P212121, four subunits in the asymmetric unit; with NAG, with NAG and arginine, or ligand-free; grown at 4°C, 50 mM Na acetate pH 4.6, 0.2 M Na-malonate, 2% PEG-8K
[2] = target: the molecule itself; test: SEC; analytical size exclusion chromatography on Superdex 200 10/300, 24°C, 50 mM Hepes pH 7.5/0.25 M NaCl; elution volume against protein standards

Row | Protein | stoichiometry N [1] | stoichiometry N [2]
1 | B1 | 4 | –
2 | B2 | – | 4
